Test [1] has as its target T1, MBP-PTH1R ECD-(His)6 fusion protein (UniProt Q03431 29-187).
T1 construct: range 29-187; Expressed in E. coli, disulfide shuffled in vitro; also called MBP-PTH1R ECD-H6; MBP-PTH1R ECD fusion protein
T1 sequence: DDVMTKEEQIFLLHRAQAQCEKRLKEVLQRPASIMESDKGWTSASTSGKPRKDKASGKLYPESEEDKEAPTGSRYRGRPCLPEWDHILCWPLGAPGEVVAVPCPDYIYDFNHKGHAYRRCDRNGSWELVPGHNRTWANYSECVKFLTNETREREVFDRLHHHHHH
Description: AlphaScreen competition against biotin-PTH(7-34)NH2 (23 nM) for MBP-PTH1R ECD-H6 (23 nM). Here is the method: (§1) ECD-peptide binding assays. The binding of peptides to the MBP-PTH1R ECD-H6 fusion protein was assessed using an AlphaScreen assay (Perkin-Elmer). […] The pre-coupling reactions were mixed, un-labeled competitor peptides were added as indicated, and the reactions were incubated 4 to 5 hrs to reach equilibrium. Photon counts were recorded in 384-well optiplates using an Envision 2104 plate reader (Perkin-Elmer). Prism 5.0 software (GraphPad Software, San Diego) was used to fit the data to a fixed-slope dose-response inhibition equation for determination of IC50 values. Real-time analysis of the binding of peptides to the isolated PTH1R ECD using the Octet Red system (ForteBio) was performed as described in below.

For test [2], the target named is T1, MBP-PTH1R ECD-(His)6 fusion protein. In words: AlphaScreen competition; competitor titrated against biotin-PTH(7-34)NH2 (23 nM) on MBP-PTH1R ECD (23 nM) [panel B]. On the procedure: as §1
A general note: In Alpha technology, singlet oxygen from a donor bead excites a nearby acceptor bead.

The target is the same in test [3]. In words: AlphaScreen competition; competitor titrated against biotin-PTH(7-34)NH2 (23 nM) on MBP-PTH1R ECD (23 nM) [panel A]. On the procedure:
as §1

Test [4] deals with T2, PTH1R in cell membranes, G protein-uncoupled conformation (R0) (UniProt Q03431 27-593, limits assumed).
T2 construct: whole, on cells; Cell membranes, not intact cells; R0 state studied by including GTPγS in the reactions; also called G protein-uncoupled receptor
T2 sequence (looked up): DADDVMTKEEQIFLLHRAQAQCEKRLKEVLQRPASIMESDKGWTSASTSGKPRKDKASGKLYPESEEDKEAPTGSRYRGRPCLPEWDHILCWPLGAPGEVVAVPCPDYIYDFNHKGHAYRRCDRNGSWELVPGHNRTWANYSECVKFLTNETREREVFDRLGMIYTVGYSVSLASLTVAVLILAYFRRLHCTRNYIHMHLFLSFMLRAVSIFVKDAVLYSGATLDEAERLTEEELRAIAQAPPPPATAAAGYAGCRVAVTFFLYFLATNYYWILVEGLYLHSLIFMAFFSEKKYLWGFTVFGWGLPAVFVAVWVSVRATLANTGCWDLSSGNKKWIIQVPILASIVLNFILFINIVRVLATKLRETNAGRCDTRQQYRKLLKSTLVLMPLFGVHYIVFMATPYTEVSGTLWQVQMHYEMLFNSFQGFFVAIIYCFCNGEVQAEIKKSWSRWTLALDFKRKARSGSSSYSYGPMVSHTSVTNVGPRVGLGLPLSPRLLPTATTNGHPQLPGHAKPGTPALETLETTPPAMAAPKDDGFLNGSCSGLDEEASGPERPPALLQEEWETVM
In words: ratio of IC50 at R0 to IC50 at RG, cell membranes.

In test [5] the target is T2, PTH1R in cell membranes, G …. Description: competition binding, PTH1R in cell membranes, R0 state (GTPγS), n = 3.
For test [6], the target named is T3, PTH1R in cell membranes, G protein-coupled conformation (RG) (UniProt Q03431 27-593).
T3 construct: whole, on cells; Cell membranes, not intact cells; RG state studied by co-expressing the receptor with dominant negative Gαs; also called G protein-coupled receptor
In words: competition binding, PTH1R in cell membranes, RG state (dominant negative Gαs), n = 3.

Test [7] concerns the target T4, hPTH1R transiently expressed in COS-1 cells (human, UniProt Q03431 27-593).
T4 sequence (looked up): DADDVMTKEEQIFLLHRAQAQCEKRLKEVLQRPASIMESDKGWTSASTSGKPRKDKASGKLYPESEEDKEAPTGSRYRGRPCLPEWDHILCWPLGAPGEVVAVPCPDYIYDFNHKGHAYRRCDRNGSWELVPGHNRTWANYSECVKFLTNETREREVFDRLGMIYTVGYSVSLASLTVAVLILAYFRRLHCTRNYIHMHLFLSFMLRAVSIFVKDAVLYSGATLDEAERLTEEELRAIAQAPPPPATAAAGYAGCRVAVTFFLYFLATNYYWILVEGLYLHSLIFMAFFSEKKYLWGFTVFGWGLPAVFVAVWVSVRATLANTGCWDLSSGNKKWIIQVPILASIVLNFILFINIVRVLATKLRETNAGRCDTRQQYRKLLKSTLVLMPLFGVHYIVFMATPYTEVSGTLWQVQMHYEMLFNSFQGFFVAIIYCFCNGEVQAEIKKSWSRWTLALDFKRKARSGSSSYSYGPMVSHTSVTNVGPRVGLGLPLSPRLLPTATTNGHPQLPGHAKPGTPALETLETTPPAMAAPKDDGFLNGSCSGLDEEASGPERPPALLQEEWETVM
In words: cell-based or functional assay.

Where no end group is shown, it is not given here.

B1: PTHrP(12-34)OH (peptide)
peptide: GKSIQDLRRRFFLHHLIAEIHTA-OH
notes: Free C-terminal carboxylic acid
What is called IC50 is the concentration that inhibits the measured activity by half. The low end stands for greater potency in that assay, the high end for weaker potency in that assay. The molecule B1 registered an IC50 in test [1] of around 2000 nM. In addition, the “IC50 (read off the curve)” value in test [2] was around 2000 nM.

B2: PTH(12-34)NH2 (peptide)
peptide: GKHLNSMERVEWLRKKLQDVHNF-NH2
B2 showed an IC50 in test [1] of around 1000 nM. Besides, the “IC50 (read off the curve)” value in test [3] was around 800 nM.

B3: PTHrP(1-34)NH2 [F23′W/L27′K/I28′L/I31′V] (peptide)
peptide: AVSEHQLLHDKGKSIQDLRRRFWLHHKLAEVHTA-NH2
As for B3, in test [4], the RO/RG came to 586 fold. In test [5], the IC50 was determined as 41 nM and the “IC50 Log M” value was -7.4 Log M. Besides, in test [6], the IC50 came out at 0.07 nM and the “IC50 Log M” value was -10.1 Log M.

B4: PTHrP(12-34)NH2 (peptide)
peptide: GKSIQDLRRRFFLHHLIAEIHTA-NH2
notes: also called C-terminally amidated 12-34 fragment of PTHrP
Molecule B4 returned an IC50 in test [1] of around 2000 nM. Besides, the “IC50 (read off the curve)” value in test [2] was around 1000 nM.

B5: PTH(1-34)NH2 [K27L/V31I] (peptide)
peptide: SVSEIQLMHNLGKHLNSMERVEWLRKLLQDIHNF-NH2
Take B5: the RO/RG in test [4] worked out at 36.8 fold. For the same molecule, in test [5], the IC50 was 25 nM and the “IC50 Log M” value is -7.6 Log M. Further, in test [6], the IC50 stood at 0.68 nM and the “IC50 Log M” value was -9.3 Log M.

B6: PTH(1-34)NH2 [W23′F/V31′I] (peptide)
peptide: SVSEIQLMHNLGKHLNSMERVEFLRKKLQDIHNF-NH2
notes: also called PTH(W23′F/V31′I)
Take B6: in test [7], the “EC50, cAMP accumulation dose-response” value was 0.0415 nM and the “maximal cAMP level relative to wt peptide” value is around 80%. Besides, in test [4], the RO/RG was found to be 386 fold. For the same molecule, in test [5], the IC50 was found to be 81 nM and the “IC50 Log M” value was -7.1 Log M. In test [6], the IC50 worked out at 0.21 nM and the “IC50 Log M” value was -9.7 Log M.

B7: PTH(1-34)NH2 [W23F/L28I] (peptide)
peptide: SVSEIQLMHNLGKHLNSMERVEFLRKKIQDVHNF-NH2
B7: in test [4], the RO/RG is 190 fold. Moreover, in test [5], the IC50 was 38 nM and the “IC50 Log M” value is -7.4 Log M. For the same molecule, in test [6], the IC50 was 0.2 nM and the “IC50 Log M” value was -9.7 Log M.

B8: PTH(1-34)NH2 [L28I/V31I] (peptide)
peptide: SVSEIQLMHNLGKHLNSMERVEWLRKKIQDIHNF-NH2
Take B8: the RO/RG in test [4] was found to be 135 fold. For the same molecule, in test [5], the IC50 stood at 42 nM and the “IC50 Log M” value was -7.4 Log M. Besides, in test [6], the IC50 amounted to 0.31 nM and the “IC50 Log M” value was -9.6 Log M.

B9: PTH(1-34)NH2 [W23F/K27L/L28I/V31I] (peptide)
peptide: SVSEIQLMHNLGKHLNSMERVEFLRKLIQDIHNF-NH2
As to B9, the RO/RG in test [4] was 68 fold. Further, the IC50 in test [5] worked out at 53 nM; in test [6] it was 0.78 nM. Besides, the “IC50 Log M” value was -7.3 Log M in test [5] and -9.2 Log M in test [6].

B10: PTH(1-34)[K27L]NH2 (peptide)
peptide: SVSEIQLMHNLGKHLNSMERVEWLRKLLQDVHNF-NH2
notes: also called 07-12-12-07-SBSL
Regarding B10, in test [4], the RO/RG was 11.9 fold. Also, in test [5], the IC50 amounted to 6.4 nM and the “IC50 Log M” value was -8.2 Log M. Also, in test [6], the IC50 is 0.54 nM and the “IC50 Log M” value is -9.3 Log M.

B11: PTH(1-34)NH2 [W23F] (peptide)
peptide: SVSEIQLMHNLGKHLNSMERVEFLRKKLQDVHNF-NH2
For B11, the RO/RG in test [4] was 59 fold. In test [5], the IC50 turned out to be 13.5 nM and the “IC50 Log M” value was -7.9 Log M. Further, in test [6], the 50% inhibitory concentration (IC50) stood at 0.23 nM and the “IC50 Log M” value was -9.7 Log M.

B12: PTH(1-34)NH2 [V31I] (peptide)
peptide: SVSEIQLMHNLGKHLNSMERVEWLRKKLQDIHNF-NH2
In the case of B12, the RO/RG in test [4] worked out at 110 fold. For the same molecule, in test [5], the IC50 stood at 34 nM and the “IC50 Log M” value is -7.5 Log M. In test [6], the IC50 was 0.31 nM and the “IC50 Log M” value was -9.6 Log M.

B13: PTH(1-34)NH2 [L28I] (peptide)
peptide: SVSEIQLMHNLGKHLNSMERVEWLRKKIQDVHNF-NH2
B13: in test [4], the RO/RG amounted to 45 fold. Moreover, the 50% inhibitory concentration (IC50) in test [5] is 4.5 nM; in test [6], 0.1 nM. Moreover, the “IC50 Log M” value in test [5] is -8.4 Log M; in test [6] it was -10 Log M.

B14: PTH(1-34)NH2 [W23F/K27L] (peptide)
peptide: SVSEIQLMHNLGKHLNSMERVEFLRKLLQDVHNF-NH2
Consider B14, for which, in test [4], the RO/RG was 26.4 fold. Also, in test [5], the IC50 amounted to 8.7 nM and the “IC50 Log M” value is -8.1 Log M. Further, in test [6], the IC50 was determined as 0.33 nM and the “IC50 Log M” value was -9.6 Log M.

The record behind these values is US8563513 (VAN ANDEL RESEARCH INSTITUTE, dated 2013).
